Key:
[1] = molecular target: T1, human transferrin receptor (human, UniProt P02786 89-760); experiment: SPR off-rate
T1 construct: also called huTfR; hTfR

[2] = molecular target: T2, cynomolgus transferrin receptor (cynomolgus, UniProt H9EXL1 89-760 (rhesus entry)); experiment: BIAcore
T2 construct: also called cyTfR; Cyno TfR

[3] = molecular target: T1, human transferrin receptor; experiment: BIAcore
[4] = molecular target: T3, cynomolgus transferrin receptor on stably transfected CHO cells (cynomolgus); experiment: FACS, cyno against human TfR CHO cells
T3 construct: whole, on cells; also called Cyno TfR-CHO; cyTfR (FACS)

T1 sequence (P02786 89-760 limits assumed): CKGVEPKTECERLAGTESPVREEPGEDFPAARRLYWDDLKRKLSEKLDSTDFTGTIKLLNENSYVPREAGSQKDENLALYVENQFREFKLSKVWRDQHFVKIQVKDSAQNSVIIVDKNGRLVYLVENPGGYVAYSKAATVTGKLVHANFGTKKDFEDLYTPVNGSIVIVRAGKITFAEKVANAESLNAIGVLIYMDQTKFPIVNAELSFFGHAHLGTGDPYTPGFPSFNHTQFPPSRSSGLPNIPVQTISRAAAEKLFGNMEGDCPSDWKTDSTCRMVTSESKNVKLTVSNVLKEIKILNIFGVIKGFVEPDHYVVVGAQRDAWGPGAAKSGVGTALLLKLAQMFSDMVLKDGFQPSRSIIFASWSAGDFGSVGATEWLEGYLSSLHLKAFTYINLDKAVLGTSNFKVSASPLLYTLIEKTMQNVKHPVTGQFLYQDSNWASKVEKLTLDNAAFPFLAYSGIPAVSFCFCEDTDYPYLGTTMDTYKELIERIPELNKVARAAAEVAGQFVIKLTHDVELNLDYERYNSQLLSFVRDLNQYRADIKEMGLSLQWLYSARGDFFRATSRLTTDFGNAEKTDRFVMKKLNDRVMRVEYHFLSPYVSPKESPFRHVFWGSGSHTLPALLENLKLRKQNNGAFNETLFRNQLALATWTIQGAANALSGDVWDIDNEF
T2 sequence (chain, as listed by the source): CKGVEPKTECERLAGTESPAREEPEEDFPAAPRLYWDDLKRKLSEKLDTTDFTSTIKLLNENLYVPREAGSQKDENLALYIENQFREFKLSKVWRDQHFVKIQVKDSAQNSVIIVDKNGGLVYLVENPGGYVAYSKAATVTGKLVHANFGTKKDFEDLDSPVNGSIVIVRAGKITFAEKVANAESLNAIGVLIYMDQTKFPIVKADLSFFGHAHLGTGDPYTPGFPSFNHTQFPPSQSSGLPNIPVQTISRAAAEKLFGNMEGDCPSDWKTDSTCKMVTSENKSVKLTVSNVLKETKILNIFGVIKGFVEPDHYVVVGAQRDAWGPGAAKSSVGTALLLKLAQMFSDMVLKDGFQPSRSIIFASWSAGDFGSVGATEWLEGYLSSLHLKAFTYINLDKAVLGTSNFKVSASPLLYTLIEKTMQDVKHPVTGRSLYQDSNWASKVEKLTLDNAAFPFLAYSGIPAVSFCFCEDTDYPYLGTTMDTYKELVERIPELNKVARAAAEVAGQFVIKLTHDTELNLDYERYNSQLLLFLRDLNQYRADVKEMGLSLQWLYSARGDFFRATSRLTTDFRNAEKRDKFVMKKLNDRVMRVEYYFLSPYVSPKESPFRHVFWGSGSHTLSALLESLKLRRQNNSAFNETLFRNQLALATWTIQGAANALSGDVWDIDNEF

Binder | koff [1] [s⁻¹] | further results
clone 494 VH 1 / VL 0 (mu) (antibody, V domains shown) VH: QVQLVQSGAEVKKPGASVKVSCKASGFNIKDTYIHWVIQAPGQGLEWMGRIDPANGDTKSDPKFQVRVTITADTSTSTVYMELSSLRSEDTAVYYCVRDYLYPYYFDFWGQGTTVTVSS VL: KIVMTQSPKSMSMSVGERVTLNCRASESVDTYVSWYQQKPEQSPELLIYGASNRYTGVPDRFTGSGSATDFTLTISSVQAEDLADYYCGQTYNYPLTFGAGTKLELKR | 0.000137 | –
clone 494 VH 1 / VL 3 (antibody, V domains shown) VH: QVQLVQSGAEVKKPGASVKVSCKASGFNIKDTYIHWVIQAPGQGLEWMGRIDPANGDTKSDPKFQVRVTITADTSTSTVYMELSSLRSEDTAVYYCVRDYLYPYYFDFWGQGTTVTVSS VL: EIVLTQSPGTLSLSPGERATLSCRASESVDTYVSWYQQKPGQAPRLLIYGASNRYTGVPDRFSGSGSGTDFTLTISRLEPEDFADYYCGQTYNYPLTFGQGTKLEI | 0.000386 | –
clone 494 VH 1 / VL 4 (antibody, V domains shown) VH: QVQLVQSGAEVKKPGASVKVSCKASGFNIKDTYIHWVIQAPGQGLEWMGRIDPANGDTKSDPKFQVRVTITADTSTSTVYMELSSLRSEDTAVYYCVRDYLYPYYFDFWGQGTTVTVSS VL: KIVLTQSPGTLSLSPGERATLSCRASESVDTYVSWYQQKPGQAPRLLIYGASNRYTGIPDRFSGSGSGTDFTLTISRLEPEDFADYYCGQTYNYPLTFGQGTKLEI | 0.000657 | –
clone 494 VH 1 / VL 2 (antibody, V domains shown) VH: QVQLVQSGAEVKKPGASVKVSCKASGFNIKDTYIHWVIQAPGQGLEWMGRIDPANGDTKSDPKFQVRVTITADTSTSTVYMELSSLRSEDTAVYYCVRDYLYPYYFDFWGQGTTVTVSS VL: KIVLTQSPGTLSLSPGERATLSCRASESVDTYVSWYQQKPGQAPRLLIYGASNRYTGVPDRFSGSGSGTDFTLTISRLEPEDFADYYCGQTYNYPLTFGQGTKLEI | 0.000399 | –
clone 494 VH 2 / VL 0 (mu) (antibody, V domains shown) VH: QVQLVQSGAEVKKPGASVKVSCKASGFNIKDTYIHWVIQAPGQGLEWMGRIDPANGDTKSAPKFQVRVTITADTSTSTVYMELSSLRSEDTAVYYCVRDYLYPYYFDFWGQGTTVTVSS VL: KIVMTQSPKSMSMSVGERVTLNCRASESVDTYVSWYQQKPEQSPELLIYGASNRYTGVPDRFTGSGSATDFTLTISSVQAEDLADYYCGQTYNYPLTFGAGTKLELKR | 0.000156 | –
clone 494 VH 0 (mu) / VL 1 (antibody, V domains shown) VH: EVQLQQSGAVLVKPGASVKLSCPASGFNIKDTYIHWVIQRPEQGLEWIGRIDPANGDTKCDPKFQVKATITADTSSNTAYLQLSSLTSEDTAVYFCVRDYLYPYYFDFWGQGTTLTVSS VL: KIQMTQSPSSLSASVGDRVTITCRASESVDTYVSWYQQKPGKAPKLLIYGASNRYTGVPSRFSGSGSGTDFTLTISSLQPEDFADYYCGQTYNYPLTFGQGTKLEI | 0.00037 | –
clone 494 VH 0 (mu) / VL 3 (antibody, V domains shown) VH: EVQLQQSGAVLVKPGASVKLSCPASGFNIKDTYIHWVIQRPEQGLEWIGRIDPANGDTKCDPKFQVKATITADTSSNTAYLQLSSLTSEDTAVYFCVRDYLYPYYFDFWGQGTTLTVSS VL: EIVLTQSPGTLSLSPGERATLSCRASESVDTYVSWYQQKPGQAPRLLIYGASNRYTGVPDRFSGSGSGTDFTLTISRLEPEDFADYYCGQTYNYPLTFGQGTKLEI | 0.000339 | –
clone 494 VH 0 (mu) / VL 2 (antibody, V domains shown) VH: EVQLQQSGAVLVKPGASVKLSCPASGFNIKDTYIHWVIQRPEQGLEWIGRIDPANGDTKCDPKFQVKATITADTSSNTAYLQLSSLTSEDTAVYFCVRDYLYPYYFDFWGQGTTLTVSS VL: KIVLTQSPGTLSLSPGERATLSCRASESVDTYVSWYQQKPGQAPRLLIYGASNRYTGVPDRFSGSGSGTDFTLTISRLEPEDFADYYCGQTYNYPLTFGQGTKLEI | 0.000364 | –
clone 494 VH 0 (mu) / VL 4 (antibody, V domains shown) VH: EVQLQQSGAVLVKPGASVKLSCPASGFNIKDTYIHWVIQRPEQGLEWIGRIDPANGDTKCDPKFQVKATITADTSSNTAYLQLSSLTSEDTAVYFCVRDYLYPYYFDFWGQGTTLTVSS VL: KIVLTQSPGTLSLSPGERATLSCRASESVDTYVSWYQQKPGQAPRLLIYGASNRYTGIPDRFSGSGSGTDFTLTISRLEPEDFADYYCGQTYNYPLTFGQGTKLEI | 0.000542 | –
clone-299 (antibody, V domains shown, Rabbit variable domains) VH: QSMEESGGRLVTPGTPLTLTCTVSGFSLSSYAMSWVRQAPGKGLEWIGYIWSGGSTDYASWAKGRFTISKTSTTVDLKITSPTTEDTATYFCARRYGTSYPDYGDANGFDPWGPGTLVTVSS VL: AYDMTQTPASVEVAVGGTVTIKCQASQSISSYLSWYQQKPGQRPKLLIYRASTLASGVSSRFKGSGSGTQFTLTISGVECADAATYYCQQCYSSSNVDNTFGGGTEVVVK | – | BIAcore t1/2 [2]: 42 min; BIAcore t1/2 [3]: 19 min; ratio EC50 Cyno/ human [4]: 0.9; ratio max Cyno/ human [4]: 1

Continued, in another order:

koff [1] [s⁻¹] | Binder | further results
0.000703 | clone 494 VH 2 / VL 4 (antibody, V domains shown) VH: QVQLVQSGAEVKKPGASVKVSCKASGFNIKDTYIHWVIQAPGQGLEWMGRIDPANGDTKSAPKFQVRVTITADTSTSTVYMELSSLRSEDTAVYYCVRDYLYPYYFDFWGQGTTVTVSS VL: KIVLTQSPGTLSLSPGERATLSCRASESVDTYVSWYQQKPGQAPRLLIYGASNRYTGIPDRFSGSGSGTDFTLTISRLEPEDFADYYCGQTYNYPLTFGQGTKLEI | –
0.000448 | clone 494 VH 4 / VL 1 (antibody, V domains shown) VH: QVQLVQSGAEVKKPGSSVKVSCKASGFNIKDTYIHWVIQAPGQGLEWMGRIDPANGDTKSDPKFQGRVTITADESTSTAYMELSSLRSEDTAVYYCVRDYLYPYYFDFWGQGTTVTVSS VL: KIQMTQSPSSLSASVGDRVTITCRASESVDTYVSWYQQKPGKAPKLLIYGASNRYTGVPSRFSGSGSGTDFTLTISSLQPEDFADYYCGQTYNYPLTFGQGTKLEI | –
0.000415 | clone 494 VH 3 / VL 2 (antibody, V domains shown) VH: QVQLVQSGAEVKKPGASVKVSCKASGFNIKDTYIHWVIQAPGQGLEWMGRIDPANGDTKSDPKFQGRVTITADTSTSTVYMELSSLRSEDTAVYYCVRDYLYPYYFDFWGQGTTVTVSS VL: KIVLTQSPGTLSLSPGERATLSCRASESVDTYVSWYQQKPGQAPRLLIYGASNRYTGVPDRFSGSGSGTDFTLTISRLEPEDFADYYCGQTYNYPLTFGQGTKLEI | –
0.000177 | clone 494 VH 4 / VL 0 (mu) (antibody, V domains shown) VH: QVQLVQSGAEVKKPGSSVKVSCKASGFNIKDTYIHWVIQAPGQGLEWMGRIDPANGDTKSDPKFQGRVTITADESTSTAYMELSSLRSEDTAVYYCVRDYLYPYYFDFWGQGTTVTVSS VL: KIVMTQSPKSMSMSVGERVTLNCRASESVDTYVSWYQQKPEQSPELLIYGASNRYTGVPDRFTGSGSATDFTLTISSVQAEDLADYYCGQTYNYPLTFGAGTKLELKR | –
0.000452 | clone 494 VH 4 / VL 3 (antibody, V domains shown) VH: QVQLVQSGAEVKKPGSSVKVSCKASGFNIKDTYIHWVIQAPGQGLEWMGRIDPANGDTKSDPKFQGRVTITADESTSTAYMELSSLRSEDTAVYYCVRDYLYPYYFDFWGQGTTVTVSS VL: EIVLTQSPGTLSLSPGERATLSCRASESVDTYVSWYQQKPGQAPRLLIYGASNRYTGVPDRFSGSGSGTDFTLTISRLEPEDFADYYCGQTYNYPLTFGQGTKLEI | –
0.000454 | clone 494 VH 2 / VL 1 (antibody, V domains shown) VH: QVQLVQSGAEVKKPGASVKVSCKASGFNIKDTYIHWVIQAPGQGLEWMGRIDPANGDTKSAPKFQVRVTITADTSTSTVYMELSSLRSEDTAVYYCVRDYLYPYYFDFWGQGTTVTVSS VL: KIQMTQSPSSLSASVGDRVTITCRASESVDTYVSWYQQKPGKAPKLLIYGASNRYTGVPSRFSGSGSGTDFTLTISSLQPEDFADYYCGQTYNYPLTFGQGTKLEI | –
0.000438 | clone 494 VH 4 / VL 2 (antibody, V domains shown) VH: QVQLVQSGAEVKKPGSSVKVSCKASGFNIKDTYIHWVIQAPGQGLEWMGRIDPANGDTKSDPKFQGRVTITADESTSTAYMELSSLRSEDTAVYYCVRDYLYPYYFDFWGQGTTVTVSS VL: KIVLTQSPGTLSLSPGERATLSCRASESVDTYVSWYQQKPGQAPRLLIYGASNRYTGVPDRFSGSGSGTDFTLTISRLEPEDFADYYCGQTYNYPLTFGQGTKLEI | –
0.000148 | clone 494 VH 3 / VL 0 (mu) (antibody, V domains shown) VH: QVQLVQSGAEVKKPGASVKVSCKASGFNIKDTYIHWVIQAPGQGLEWMGRIDPANGDTKSDPKFQGRVTITADTSTSTVYMELSSLRSEDTAVYYCVRDYLYPYYFDFWGQGTTVTVSS VL: KIVMTQSPKSMSMSVGERVTLNCRASESVDTYVSWYQQKPEQSPELLIYGASNRYTGVPDRFTGSGSATDFTLTISSVQAEDLADYYCGQTYNYPLTFGAGTKLELKR | –
0.00043 | clone 494 VH 2 / VL 3 (antibody, V domains shown) VH: QVQLVQSGAEVKKPGASVKVSCKASGFNIKDTYIHWVIQAPGQGLEWMGRIDPANGDTKSAPKFQVRVTITADTSTSTVYMELSSLRSEDTAVYYCVRDYLYPYYFDFWGQGTTVTVSS VL: EIVLTQSPGTLSLSPGERATLSCRASESVDTYVSWYQQKPGQAPRLLIYGASNRYTGVPDRFSGSGSGTDFTLTISRLEPEDFADYYCGQTYNYPLTFGQGTKLEI | –
0.000476 | clone 494 VH 3 / VL 1 (antibody, V domains shown) VH: QVQLVQSGAEVKKPGASVKVSCKASGFNIKDTYIHWVIQAPGQGLEWMGRIDPANGDTKSDPKFQGRVTITADTSTSTVYMELSSLRSEDTAVYYCVRDYLYPYYFDFWGQGTTVTVSS VL: KIQMTQSPSSLSASVGDRVTITCRASESVDTYVSWYQQKPGKAPKLLIYGASNRYTGVPSRFSGSGSGTDFTLTISSLQPEDFADYYCGQTYNYPLTFGQGTKLEI | –
0.000683 | clone 494 VH 3 / VL 4 (antibody, V domains shown) VH: QVQLVQSGAEVKKPGASVKVSCKASGFNIKDTYIHWVIQAPGQGLEWMGRIDPANGDTKSDPKFQGRVTITADTSTSTVYMELSSLRSEDTAVYYCVRDYLYPYYFDFWGQGTTVTVSS VL: KIVLTQSPGTLSLSPGERATLSCRASESVDTYVSWYQQKPGQAPRLLIYGASNRYTGIPDRFSGSGSGTDFTLTISRLEPEDFADYYCGQTYNYPLTFGQGTKLEI | –
